Results reported in patent publication US20210309735A1 (published 2021).

What was measured:
human IL-17A [1] = target: T1, human IL-17A (human, UniProt Q16552 20-155, limits assumed); assay: blocking ELISA, IL-17RC coated; control IgG pre-mixed with human IL-17A 0.1 ug/ml; bound IL-17A detected
T1 construct: Bought from R&D Systems; also called IL-17 antigen (human IL17A)
T1 sequence (looked up): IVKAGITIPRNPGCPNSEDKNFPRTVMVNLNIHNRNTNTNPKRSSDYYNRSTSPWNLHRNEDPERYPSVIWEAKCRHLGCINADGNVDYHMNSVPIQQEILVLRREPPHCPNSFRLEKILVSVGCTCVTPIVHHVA

human IL-17A [2] = target: T1, human IL-17A; assay: blocking ELISA, IL-17RC coated; control IgG pre-mixed with human IL-17A 0.1 ug/ml; bound IL-17A detected (unblocked signal)
human IL-17A [3] = target: T1, human IL-17A; assay: blocking ELISA, IL-17RA coated; control IgG pre-mixed with human IL-17A 0.1 ug/ml; bound IL-17A detected
human IL-17A [4] = target: T1, human IL-17A; assay: blocking ELISA, IL-17RA coated; control IgG pre-mixed with human IL-17A 0.1 ug/ml; bound IL-17A detected (unblocked signal)

Blocking % (human IL-17A [1]): 0%
OD450 (human IL-17A [2]): 0.487 OD450
Blocking % (human IL-17A [3]): 0%
OD450 (human IL-17A [4]): 1.39 OD450
Substance: Normal human IgG (antibody)
